Article PMC8837033

Target: Shp-2 (UniProt P35235)
Test: anti-FLAG co-IP, Shp-2 immunoblot
Conditions: reference: wild type, 1 mM pervanadate; sites Y447,Y470

binding against the reference: lost
Substance: Siglec-8 (from UniProt Q9NYZ4) Y447F+Y470F, 1 mM pervanadate
